This note sets out measurements from paper PMC11535040, “Requirement of Nek2a and cyclin A2 for Wapl-dependent removal of cohesin from prophase chromatin” (The EMBO Journal, 2024).

The target in this assay is T1, Flag-tagged Pds5b-Ser1177,1182,1209Ala (3A) phosphorylated by Cdk1/2-cyclin A2 (human, UniProt Q9NTI5 1-1447, Ser1177,1182,1209Ala | Ser1177,1182,1209Ala | Ser1177,1182,1209Ala, phosphoserine at 1161 and 1166 (by Cdk1/2-cyclin A2)).
T1 construct: Pds5b, human; also called Pds5b-3A
T1 sequence (looked up): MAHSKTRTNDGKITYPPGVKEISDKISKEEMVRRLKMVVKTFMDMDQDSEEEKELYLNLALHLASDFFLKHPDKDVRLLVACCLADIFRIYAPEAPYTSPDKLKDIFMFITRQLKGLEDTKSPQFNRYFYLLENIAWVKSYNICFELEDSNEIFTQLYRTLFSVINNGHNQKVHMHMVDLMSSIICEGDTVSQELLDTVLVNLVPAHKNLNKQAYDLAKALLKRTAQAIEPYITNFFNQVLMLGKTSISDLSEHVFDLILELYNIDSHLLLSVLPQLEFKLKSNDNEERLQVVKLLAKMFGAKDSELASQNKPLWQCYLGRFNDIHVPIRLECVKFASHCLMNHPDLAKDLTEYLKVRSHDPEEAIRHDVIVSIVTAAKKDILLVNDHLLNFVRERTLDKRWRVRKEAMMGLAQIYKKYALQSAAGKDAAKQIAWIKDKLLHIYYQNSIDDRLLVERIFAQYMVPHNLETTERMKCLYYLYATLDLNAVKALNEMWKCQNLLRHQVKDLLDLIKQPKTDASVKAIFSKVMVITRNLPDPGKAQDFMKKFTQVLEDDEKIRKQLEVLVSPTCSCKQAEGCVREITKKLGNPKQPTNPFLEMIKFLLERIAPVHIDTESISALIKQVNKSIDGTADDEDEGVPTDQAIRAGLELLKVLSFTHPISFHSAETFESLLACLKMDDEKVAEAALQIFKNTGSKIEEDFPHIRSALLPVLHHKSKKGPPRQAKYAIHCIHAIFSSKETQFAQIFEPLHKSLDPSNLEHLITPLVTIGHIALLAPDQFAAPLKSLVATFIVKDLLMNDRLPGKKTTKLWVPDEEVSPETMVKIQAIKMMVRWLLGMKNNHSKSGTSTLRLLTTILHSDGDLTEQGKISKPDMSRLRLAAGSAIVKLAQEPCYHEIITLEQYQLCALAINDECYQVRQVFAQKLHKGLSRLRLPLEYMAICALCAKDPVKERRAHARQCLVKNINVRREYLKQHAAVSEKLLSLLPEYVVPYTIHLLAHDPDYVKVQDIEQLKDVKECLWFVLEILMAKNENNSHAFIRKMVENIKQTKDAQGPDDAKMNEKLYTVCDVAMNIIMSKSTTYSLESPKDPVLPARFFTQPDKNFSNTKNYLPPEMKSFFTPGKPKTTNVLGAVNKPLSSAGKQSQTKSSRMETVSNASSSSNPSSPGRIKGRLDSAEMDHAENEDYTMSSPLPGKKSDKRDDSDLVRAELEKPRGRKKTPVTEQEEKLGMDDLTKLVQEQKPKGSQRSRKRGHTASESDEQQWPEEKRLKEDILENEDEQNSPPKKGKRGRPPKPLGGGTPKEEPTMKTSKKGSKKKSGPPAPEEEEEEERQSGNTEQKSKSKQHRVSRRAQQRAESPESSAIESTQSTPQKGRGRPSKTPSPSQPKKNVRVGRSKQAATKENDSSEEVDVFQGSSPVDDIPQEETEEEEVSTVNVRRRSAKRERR
Briefly: pull-down; Flag-Pds5b variants affinity-purified from Nek2a- and cyclin A2-free prometaphase cells, incubated on the beads with recombinant Nek2a and/or Cdk1/2-cyclin A2 and ATP, washed, then incubated with recombinant Wapl (2 µl) and sororin (0.3 µg) in 15 µl cleavage buffer without ATP, 20 min at 37 °C; immunoblotting. The following applies: both partners purified. On the technique in general: Immunoblotting shows a protein as a band on a membrane.

B1: recombinant human Wapl (natural protein, UniProt Q7Z5K2 1-1190, looked up)
chain: MTSRFGKTYSRKGGNGSSKFDEVFSNKRTTLSTKWGETTFMAKLGQKRPNFKPDIQEIPKKPKVEEESTGDPFGFDSDDESLPVSSKNLAQVKCSSYSESSEAAQLEEVTSVLEANSKISHVVVEDTVVSDKCFPLEDTLLGKEKSTNRIVEDDASISSCNKLITSDKVENFHEEHEKNSHHIHKNADDSTKKPNAETTVASEIKETNDTWNSQFGKRPESPSEISPIKGSVRTGLFEWDNDFEDIRSEDCILSLDSDPLLEMKDDDFKNRLENLNEAIEEDIVQSVLRPTNCRTYCRANKTKSSQGASNFDKLMDGTSQALAKANSESSKDGLNQAKKGGVSCGTSFRGTVGRTRDYTVLHPSCLSVCNVTIQDTMERSMDEFTASTPADLGEAGRLRKKADIATSKTTTRFRPSNTKSKKDVKLEFFGFEDHETGGDEGGSGSSNYKIKYFGFDDLSESEDDEDDDCQVERKTSKKRTKTAPSPSLQPPPESNDNSQDSQSGTNNAENLDFTEDLPGVPESVKKPINKQGDKSKENTRKIFSGPKRSPTKAVYNARHWNHPDSEELPGPPVVKPQSVTVRLSSKEPNQKDDGVFKAPAPPSKVIKTVTIPTQPYQDIVTALKCRREDKELYTVVQHVKHFNDVVEFGENQEFTDDIEYLLSGLKSTQPLNTRCLSVISLATKCAMPSFRMHLRAHGMVAMVFKTLDDSQHHQNLSLCTAALMYILSRDRLNMDLDRASLDLMIRLLELEQDASSAKLLNEKDMNKIKEKIRRLCETVHNKHLDLENITTGHLAMETLLSLTSKRAGDWFKEELRLLGGLDHIVDKVKECVDHLSRDEDEEKLVASLWGAERCLRVLESVTVHNPENQSYLIAYKDSQLIVSSAKALQHCEELIQQYNRAEDSICLADSKPLPHQNVTNHVGKAVEDCMRAIIGVLLNLTNDNEWGSTKTGEQDGLIGTALNCVLQVPKYLPQEQRFDIRVLGLGLLINLVEYSARNRHCLVNMETSCSFDSSICSGEGDDSLRIGGQVHAVQALVQLFLERERAAQLAESKTDELIKDAPTTQHDKSGEWQETSGEIQWVSTEKTDGTEEKHKKEEEDEELDLNKALQHAGKHMEDCIVASYTALLLGCLCQESPINVTTVREYLPEGDFSIMTEMLKKFLSFMNLTCAVGTTGQKSISRVIEYLEHC
notes: Wapl, human; insert by PCR on human cDNA; Isolated from mitotically arrested cells; also called GFP-SUMOstar-Wapl; source: Hek293T, transiently transfected, taxol-arrested; not shown: GFP, N-terminal, cleaved; SUMOstar, N-terminal, cleaved
For B1, the binding result is “binds”.
